Data taken from patent US20220023395A1.

Legend:
[1] = target: IL-2 receptor (CD25) on HUT-102 and MT-2 cells (human) (UniProt P01589); experiment: cell-based or functional assay
[2] = target: T1, CD124 (IL4-receptor) on 4T1 triple-negative breast cancer cells (mouse) (UniProt P16382); experiment: cell-based or functional assay
T1 sequence: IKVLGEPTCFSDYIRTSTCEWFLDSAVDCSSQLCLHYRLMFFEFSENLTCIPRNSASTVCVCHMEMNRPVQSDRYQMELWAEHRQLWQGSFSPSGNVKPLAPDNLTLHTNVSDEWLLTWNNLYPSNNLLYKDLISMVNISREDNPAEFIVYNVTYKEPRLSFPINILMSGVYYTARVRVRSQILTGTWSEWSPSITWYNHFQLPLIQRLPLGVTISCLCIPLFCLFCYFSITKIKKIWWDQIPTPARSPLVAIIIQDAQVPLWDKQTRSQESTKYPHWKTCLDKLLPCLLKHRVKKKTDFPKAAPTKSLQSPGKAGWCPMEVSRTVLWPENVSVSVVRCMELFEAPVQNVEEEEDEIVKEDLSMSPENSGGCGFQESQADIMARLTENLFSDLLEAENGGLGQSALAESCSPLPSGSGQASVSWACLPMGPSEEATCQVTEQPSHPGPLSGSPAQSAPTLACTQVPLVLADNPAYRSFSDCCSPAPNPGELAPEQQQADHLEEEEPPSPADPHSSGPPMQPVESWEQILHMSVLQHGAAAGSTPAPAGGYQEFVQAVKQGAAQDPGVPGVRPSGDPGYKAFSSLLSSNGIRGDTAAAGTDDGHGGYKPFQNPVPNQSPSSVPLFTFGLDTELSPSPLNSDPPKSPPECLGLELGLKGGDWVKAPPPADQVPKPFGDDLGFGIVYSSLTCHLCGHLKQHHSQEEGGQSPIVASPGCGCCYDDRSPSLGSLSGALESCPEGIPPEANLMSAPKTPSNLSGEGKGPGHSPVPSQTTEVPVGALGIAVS

Sequence of UniProt P01589 (P01589 22-272): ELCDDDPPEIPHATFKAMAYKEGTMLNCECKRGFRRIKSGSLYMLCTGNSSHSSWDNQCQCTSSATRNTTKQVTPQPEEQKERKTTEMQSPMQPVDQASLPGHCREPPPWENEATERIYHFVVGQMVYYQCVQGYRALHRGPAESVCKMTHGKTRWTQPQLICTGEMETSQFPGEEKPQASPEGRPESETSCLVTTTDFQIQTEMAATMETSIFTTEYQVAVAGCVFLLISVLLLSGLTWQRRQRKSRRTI

“C. diphtheriae-derived s-Ontak-His6 (SEQ ID NO: 58)” was tested, and the MT-2 cell IC50 (earlier disclosed data) [1] was 0.12 pM.
With “E. coli-derived classic Ontak (denileukin diftitox, SEQ ID NO: 10)” the IC50 against HUT-102 T cell lymphoma cells (in vitro cell killing) [1] was 1.8 pM.
For s-DAB1-389-mIL4-His6 (SEQ ID NO: 134), the IC50 for killing 4T1 cells (Trypan blue viability) [2] was 10 pM and the IC50 of 4T1 cell migration inhibition (clonogenic assay, Giemsa staining) [2] was 800 pM.
